Test results: article PMC10765524
*1 amine or outer side, *2 acyl side, *3 side chain or, on linkers, in order; H or OH if unused. Where no end group is shown, it is not given here. [ ]: non-standard residue; d: D form. tpS = thiophosphoserine, O=C([C@H](COP(O)(O)=S)N[*:1])[*:2]

Biological target: PP2A:B55 holoenzyme (PP2Aa, B55, PP2Ac) (UniProt P30153)
Sequence (P30153 9-589, chain 1 of 3): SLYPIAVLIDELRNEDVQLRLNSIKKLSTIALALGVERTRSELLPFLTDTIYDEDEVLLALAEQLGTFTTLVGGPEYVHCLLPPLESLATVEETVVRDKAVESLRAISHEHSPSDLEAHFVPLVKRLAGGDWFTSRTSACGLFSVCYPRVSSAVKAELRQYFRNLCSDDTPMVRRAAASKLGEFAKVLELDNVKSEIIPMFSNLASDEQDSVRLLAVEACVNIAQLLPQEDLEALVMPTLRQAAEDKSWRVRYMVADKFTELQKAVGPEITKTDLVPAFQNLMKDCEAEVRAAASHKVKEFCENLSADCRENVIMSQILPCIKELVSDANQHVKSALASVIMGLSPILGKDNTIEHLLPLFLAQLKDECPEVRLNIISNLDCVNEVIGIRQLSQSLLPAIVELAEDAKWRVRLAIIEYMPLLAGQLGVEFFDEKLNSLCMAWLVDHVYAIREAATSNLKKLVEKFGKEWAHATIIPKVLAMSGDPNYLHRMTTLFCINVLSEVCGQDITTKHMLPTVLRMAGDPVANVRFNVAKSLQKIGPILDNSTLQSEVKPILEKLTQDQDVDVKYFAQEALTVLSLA
Sequence (P63151 whole entry, chain 2 of 3, further chain): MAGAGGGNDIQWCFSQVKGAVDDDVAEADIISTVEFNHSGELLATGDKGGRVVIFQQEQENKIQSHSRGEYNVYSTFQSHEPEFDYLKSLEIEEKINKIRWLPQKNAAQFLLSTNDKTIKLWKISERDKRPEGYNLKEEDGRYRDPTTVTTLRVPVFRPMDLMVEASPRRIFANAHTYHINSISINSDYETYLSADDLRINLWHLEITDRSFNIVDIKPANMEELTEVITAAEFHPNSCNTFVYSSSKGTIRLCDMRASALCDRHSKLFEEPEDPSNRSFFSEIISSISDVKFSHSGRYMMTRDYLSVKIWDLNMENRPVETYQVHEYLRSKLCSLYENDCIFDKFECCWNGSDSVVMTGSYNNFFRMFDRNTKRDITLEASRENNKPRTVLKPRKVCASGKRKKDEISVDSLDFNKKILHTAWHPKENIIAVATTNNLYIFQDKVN
Sequence (P67775 whole entry, chain 3 of 3, further chain): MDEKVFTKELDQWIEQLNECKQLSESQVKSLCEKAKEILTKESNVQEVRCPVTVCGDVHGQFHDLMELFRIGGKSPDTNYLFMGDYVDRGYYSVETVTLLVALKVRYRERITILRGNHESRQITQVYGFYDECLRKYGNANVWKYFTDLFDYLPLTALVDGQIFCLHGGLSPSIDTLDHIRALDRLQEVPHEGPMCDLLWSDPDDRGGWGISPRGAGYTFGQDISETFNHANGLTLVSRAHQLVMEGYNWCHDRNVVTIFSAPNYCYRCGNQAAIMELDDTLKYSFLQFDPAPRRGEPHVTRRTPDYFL

B1: tpARPP19_(19–75) (domain or fragment)
chain: DKVTSPEKAEEAKLKARYPHLGQKPGGSDFLRKRLQKGQKYFD[tpS]GDYNMAKAKMKNK
modifications: also: thiophosphorylated, site not given here
B1 was tested, and the IC50 of PP2A:B55 inhibition (DiFMUP), against tpARPP19 was > 50 fold.
